Laboratory results from patent US20100240080A1.
Values belong to the molecule of their own block, whether it stands above or below them.

Assays:
[1] = molecular target: Abl 1 substrate, SEQ ID NO: 3 (…), modified with 7-hydroxycoumarin and 5-FAM; experiment: cell-based or functional assay
[2] = test system: T1, Akt 1 substrate, SEQ ID NO: 59 (ARPRAFSVGK), modified with 7-hydroxycoumarin and 5-FAM
T1 sequence: ARPRAFSVGK

[3] = molecular target: Akt 1 substrate, SEQ ID NO: 59 (…), modified with 7-hydroxycoumarin and 5-FAM; experiment: cell-based or functional assay
[4] = test system: T2, SEQ ID NO: 47 (ALRRFSLGEK), modified as described
T2 sequence: ALRRFSLGEK

[5] = test system: T3, SEQ ID NO: 113 (RPRTFSS*LAEGK), labelled phosphopeptide
T3 sequence: RPRTFSSLAEGK

[6] = test system: T4, SEQ ID NO: 103 (GDQDYLS*LDK), labelled phosphopeptide
T4 sequence: GDQDYLSLDK

[7] = test system: T5, SEQ ID NO: 110 (RRRQFS*LRRKAK), labelled phosphopeptide
T5 sequence: RRRQFSLRRKAK

[8] = test system: T6, SEQ ID NO: 109 (ARPRAFS*VGK), labelled phosphopeptide
T6 sequence: ARPRAFSVGK

[9] = test system: T7, SEQ ID NO: 100 (RGGLFS*TTPGGTK), labelled phosphopeptide
T7 sequence: RGGLFSTTPGGTK

[10] = molecular target: T8, SEQ ID NO: 31 (EEEIY*GVIEK), labelled phosphopeptide
T8 chain: EEEIYGVIEK

% of substrate phosphorylated in the 0% inhibition control (1.5 ng Abl 1/well, 10 µM ATP) [1]: 30%
Molecule: Abl 1 kinase (from UniProt P00519 1-1130) (enzyme)

Molecule: Akt 1 kinase
% Phosphorylation at 5.0 ng Akt 1 kinase per well [2]: 8%
% Phosphorylation at 10.0 ng Akt 1 kinase per well [2]: 12%
% Phosphorylation at 25.0 ng Akt 1 kinase per well [2]: 20%
% Phosphorylation at 37.5 ng Akt 1 kinase per well [2]: 28%
% Phosphorylation at 42.0 ng Akt 1 kinase per well [2]: 30%
% Phosphorylation at 50.0 ng Akt 1 kinase per well [2]: 33%
% Phosphorylation at 75.0 ng Akt 1 kinase per well [2]: 38%
% Phosphorylation at 100.0 ng Akt 1 kinase per well [2]: 43%
% Phosphorylation at 150.0 ng Akt 1 kinase per well [2]: 50%

% of substrate phosphorylated in the 0% inhibition control (42 ng Akt 1/well, 10.5 µM ATP) [3]: 30%
Molecule: Akt 1 kinase (from UniProt P31749 1-480) (enzyme)

Molecule: PKA
% phosphorylation by PKA (kinase titration, FRET/chymotrypsin read-out) [4]: SEQ ID NO: 47 modified as described, is the best substrate for the kinase because it yielded maximal phosphorylation even at low kinase concentrations

Molecule: PP2A
phosphatase substrate screen (dephosphorylation, FRET/chymotrypsin read-out) [5]: SEQ ID NOs: 103, 109, 110, and 113 were substrates of PP2A
phosphatase substrate screen (dephosphorylation, FRET/chymotrypsin read-out) [6]: SEQ ID NOs: 103, 109, 110, and 113 were substrates of PP2A
phosphatase substrate screen (dephosphorylation, FRET/chymotrypsin read-out) [7]: SEQ ID NOs: 103, 109, 110, and 113 were substrates of PP2A
phosphatase substrate screen (dephosphorylation, FRET/chymotrypsin read-out) [8]: SEQ ID NOs: 103, 109, 110, and 113 were substrates of PP2A

Molecule: PP2B
phosphatase substrate screen (dephosphorylation, FRET/chymotrypsin read-out) [9]: SEQ ID NOs: 100 and 110 were substrates of PP2B
phosphatase substrate screen (dephosphorylation, FRET/chymotrypsin read-out) [7]: SEQ ID NOs: 100 and 110 were substrates of PP2B

Molecule: PP2C
phosphatase substrate screen (dephosphorylation, FRET/chymotrypsin read-out) [9]: SEQ ID NOs: 100, 109, and 110 were substrates of PP2C
phosphatase substrate screen (dephosphorylation, FRET/chymotrypsin read-out) [7]: SEQ ID NOs: 100, 109, and 110 were substrates of PP2C
phosphatase substrate screen (dephosphorylation, FRET/chymotrypsin read-out) [8]: SEQ ID NOs: 100, 109, and 110 were substrates of PP2C

B1: LAR (protein)
chain: KRKRTHSPSSKDEQSIGLKDSLLAHSSDPVEMRRLNYQTPGMRDHPPIPITDLADNIERLKANDGLKFSQEYESIDPGQQFTWENSNLEVNKPKNRYANVIAYDHSRVILTSIDGVPGSDYINANYIDGYRKQNAYIATQGPLPETMGDFWRMVWEQRTATVVMMTRLEEKSRVKCDQYWPARGTETCGLIQVTLLDTVELATYTVRTFALHKSGSSEKRELRQFQFMAWPDHGVPEYPTPILAFLRRVKACNPLDAGPMVVHCSAGVGRTGCFIVIDAMLERMKHEKTVDIYGHVTCMRSQRNYMVQTEDQYVFIHEALLEAATCGHTEVPARNLYAH
phosphatase substrate screen (dephosphorylation, FRET/chymotrypsin read-out) [10]: SEQ ID NO: 31 was a substrate for both PTP1B and LAR

B2: PTP1B (protein)
chain: MEMEKEFEQIDKSGSWAAIYQDIRHEASDFPCRVAKLPKNKNRNRYRDVSPFDHSRIKLHQEDNDYINASLIKMEEAQRSYILTQGPLPNTCGHFWEMVWEQKSRGVVMLNRVMEKGSLKCAQYWPQKEEKEMIFEDTNLKLTLISEDIKSYYTVRQLELENLTTQETREILHFHYTTWPDFGVPESPASFLNFLFKVRESGSLSPEHGPVVVHCSAGIGRSGTFCLADTCLLLMDKRKDPSSVDIKKVLLEMRKFRMGLIQTADQLRFSYLAVIEGAKFIMGDSSVQDQWKELSHEDLEPPPEHIPPPPRPPKRILEPHN
phosphatase substrate screen (dephosphorylation, FRET/chymotrypsin read-out) [10]: SEQ ID NO: 31 was a substrate for both PTP1B and LAR
